The record followed here is PMC6120343 (Nature, 2018).

The data set “SEC” concerns the molecule itself. In words: SEC. On the technique in general: In gel filtration, larger molecules generally elute earlier.
Data set [1] concerns the molecule itself. In words: cryo-EM 2D class averages.
Data set [2] concerns the molecule itself. In words: assembly and coassembly seen by negative stain electron microscopy.
The target in data set [3] is DRP1 E116R mutant, full length (human, UniProt O00429-3 1-710, E116R). The data set is described as above.

B1: DRP1 G362D, disease-associated mutant, full length (enzyme)
chain: MEALIPVINKLQDVFNTVGADIIQLPQIVVVGTQSSGKSSVLESLVGRDLLPRGTGIVTRRPLILQLVHVSQEDKRKTTGEENGVEAEEWGKFLHTKNKLYTDFDEIRQEIENETERISGNNKGVSPEPIHLKIFSPNVVNLTLVDLPGMTKVPVGDQPKDIELQIRELILRFISNPNSIILAVTAANTDMATSEALKISREVDPDGRRTLAVITKLDLMDAGTDAMDVLMGRVIPVKLGIIGVVNRSQLDINNKKSVTDSIRDEYAFLQKKYPSLANRNGTKYLARTLNRLLMHHIRDCLPELKTRINVLAAQYQSLLNSYGEPVDDKSATLLQLITKFATEYCNTIEGTAKYIETSELCDGARICYIFHETFGRTLESVDPLGGLNTIDILTAIRNATGPRPALFVPEVSFELLVKRQIKRLEEPSLRCVELVHEEMQRIIQHCSNYSTQELLRFPKLHDAIVEVVTCLLRKRLPVTNEMVHNLVAIELAYINTKHPDFADACGLMNNNIEEQRRNRLARELPSAVSRDKLIQDSRRETKNVASGGGGVGDGVQEPTTGNWRGMLKTSKAEELLAEEKSKPIPIMPASPQKGHAVNLLDVPVPVARKLSAREQRDCEVIERLIKSYFLIVRKNIQDSVPKAVMHFLVNHVKDTLQSELVGQLYKSSLLDDLLTESEDMAQRRKEAADMLKALQGASQIIAEIRETHLW
By stoichiometry N is commonly meant a count of units in the complex or per binding partner. With B1, the results for the “stoichiometry N” value (in the data set “SEC”; in data set [1]) were 2 and 24 chains (12 dimers), respectively.

B2: DRP1 S611D phosphomimetic mutant, full length (enzyme)
chain: MEALIPVINKLQDVFNTVGADIIQLPQIVVVGTQSSGKSSVLESLVGRDLLPRGTGIVTRRPLILQLVHVSQEDKRKTTGEENGVEAEEWGKFLHTKNKLYTDFDEIRQEIENETERISGNNKGVSPEPIHLKIFSPNVVNLTLVDLPGMTKVPVGDQPKDIELQIRELILRFISNPNSIILAVTAANTDMATSEALKISREVDPDGRRTLAVITKLDLMDAGTDAMDVLMGRVIPVKLGIIGVVNRSQLDINNKKSVTDSIRDEYAFLQKKYPSLANRNGTKYLARTLNRLLMHHIRDCLPELKTRINVLAAQYQSLLNSYGEPVDDKSATLLQLITKFATEYCNTIEGTAKYIETSELCGGARICYIFHETFGRTLESVDPLGGLNTIDILTAIRNATGPRPALFVPEVSFELLVKRQIKRLEEPSLRCVELVHEEMQRIIQHCSNYSTQELLRFPKLHDAIVEVVTCLLRKRLPVTNEMVHNLVAIELAYINTKHPDFADACGLMNNNIEEQRRNRLARELPSAVSRDKLIQDSRRETKNVASGGGGVGDGVQEPTTGNWRGMLKTSKAEELLAEEKSKPIPIMPASPQKGHAVNLLDVPVPVARKLDAREQRDCEVIERLIKSYFLIVRKNIQDSVPKAVMHFLVNHVKDTLQSELVGQLYKSSLLDDLLTESEDMAQRRKEAADMLKALQGASQIIAEIRETHLW
For B2, the binding result in data set [2] is “binds”.

B3: MID49_(126-454), soluble truncation of Mitochondrial Dynamics 49 without the N-terminal transmembrane anchor (domain or fragment)
chain: TLQERLLAFERDRVTIPAAQVALAKQLAGDIALELQAYFRSKFPELPFGAFVPGGPLYDGLQAGAADHVRLLVPLVLEPGLWSLVPGVDTVARDPRCWAVRRTQLEFCPRGSSPWDRFLVGGYLSSRVLLELLRKALAASVNWPAIGSLLGCLIRPSMASEELLLEVQHERLELTVAVLVAVPGVDADDRLLLAWPLEGLAGNLWLQDLYPVEAARLRALDDHDAGTRRRLLLLLCAVCRGCSALGQLGRGHLTQVVLRLGEDNVDWTEEALGERFLQALELLIGSLEQASLPCHFNPSVNLFSSLREEEIDDIGYALYSGLQEPEGLL
Take B3: the binding result in data set [3] was “binds”.
